# From publication PMC3589550 (Nature structural & molecular biology, 2011)
# “Also recorded” adds a separate entry of the source.
# B1: vIRF4: KSHV viral interferon regulatory factor 4 (protein)
# chain: MPKAGGSEWATLWIIDALENNKFPYFSWFDRNNLLFAAPAPLPAGSDIPPGWYSVYHAFDEECDRVYGPSPVVGQTVYGRFGRLLRGTRRAVVRNDLRYSDTFGGSYVVWQLVRTPFKNCTYCYGAAYGPEKLQRFIQCLLSPPMQTTATRRSDTREQSYEEAGAAAPAPPKAPSGLRGRPRKSNRYYNVGDITTEQKAACSVWIPVNEGASTSGMGSSGTRQVTQASSFTWRVPGDPPAPSTLTGPSDPHSSGAGLPGTAPPKPQHETRLAGTVSGVSGVAQTPGDTGQLAPPMRDGSRLPSTSPWIPACFPWGDLPVTGWWPQGASGLPEKVHPPTTGQFDPLSPRWTYTGIPSSQLNPAAPSWIPPHAQAGTFVGEFSQGAPLAPQGLLPQSGQCASAWLPRRETGAEGACGASTEGRAPQGAASERVYPFEPQPPSAPAPGYAKPSCYNWSPLAEPPATRPIRAPVWHPPVGHAVVPEVRTPLWIPWSSGGAPNQGLSHTQGGASATPSAGAPPTPEVAERQEPSSSGIPYVCQGDNMATGYRRVTTSSGALEVEIIDLTGDSDTPSTTVASTPLPVSGPRVFQPTVLYSAPEPAVNPEVSHLPTELERRECVCPGSGERPRVPLVSTYAGDRYAVGGYGPEQSLVPPPLGLPLTLSNLQGEDICTWEEGLGNILSELQEEPSSSTRQATDRRRPRSRSPHGRRTPVSHSGPEKPPSKMFFDPPDSQRVSFVVEIFVYGNLRGTLRREGDAGEAMLCSWPVGDTLGHLCQSFVPELLRIPRLTVPSPEQMEILNRVFEGLGHGFPIFCSMSGIYSRNATQVEGWWFGNPNSRYERILRSFSPRVPQQLFNTARYLATTAAIPQTPLSVNPVTCGTVFFGASPASTENFQNVPLTVKIFIGSIWDSLH
# modifications: left off: V5, end not stated, kept
# B2: vIRF4^153–256/Δ202–216/Δ237–256: vIRF4^153–256 with residues 202–216 and 237–256 deleted (protein)
# chain: SDTREQSYEEAGAAAPAPPKAPSGLRGRPRKSNRYYNVGDITTEQKAACGSSGTRQVTQASSFTWRVPG
# B3: vIRF4^153–256/Δ202–216: vIRF4^153–256 with residues 202–216 deleted (protein)
# chain: SDTREQSYEEAGAAAPAPPKAPSGLRGRPRKSNRYYNVGDITTEQKAACGSSGTRQVTQASSFTWRVPGDPPAPSTLTGPSDPHSSGAG
# B4: vIRF4^153–256: central region fragment of vIRF4, residues 153–256 (protein)
# chain: SDTREQSYEEAGAAAPAPPKAPSGLRGRPRKSNRYYNVGDITTEQKAACSVWIPVNEGASTSGMGSSGTRQVTQASSFTWRVPGDPPAPSTLTGPSDPHSSGAG
# Tests used:
# p53 = p53 ubiquitination on vIRF4 expression; format: cell-based
# HAUSP [1] = target: T1, HAUSP (Homo sapiens, UniProt Q93009); assay: In vitro deubiquitination; format: biochemical; conditions: immunopurified Flag-HAUSP complexes, K48-linked 3–7 polyubiquitin chains
# T1 sequence (Q93009 whole entry, the tested form may be a part): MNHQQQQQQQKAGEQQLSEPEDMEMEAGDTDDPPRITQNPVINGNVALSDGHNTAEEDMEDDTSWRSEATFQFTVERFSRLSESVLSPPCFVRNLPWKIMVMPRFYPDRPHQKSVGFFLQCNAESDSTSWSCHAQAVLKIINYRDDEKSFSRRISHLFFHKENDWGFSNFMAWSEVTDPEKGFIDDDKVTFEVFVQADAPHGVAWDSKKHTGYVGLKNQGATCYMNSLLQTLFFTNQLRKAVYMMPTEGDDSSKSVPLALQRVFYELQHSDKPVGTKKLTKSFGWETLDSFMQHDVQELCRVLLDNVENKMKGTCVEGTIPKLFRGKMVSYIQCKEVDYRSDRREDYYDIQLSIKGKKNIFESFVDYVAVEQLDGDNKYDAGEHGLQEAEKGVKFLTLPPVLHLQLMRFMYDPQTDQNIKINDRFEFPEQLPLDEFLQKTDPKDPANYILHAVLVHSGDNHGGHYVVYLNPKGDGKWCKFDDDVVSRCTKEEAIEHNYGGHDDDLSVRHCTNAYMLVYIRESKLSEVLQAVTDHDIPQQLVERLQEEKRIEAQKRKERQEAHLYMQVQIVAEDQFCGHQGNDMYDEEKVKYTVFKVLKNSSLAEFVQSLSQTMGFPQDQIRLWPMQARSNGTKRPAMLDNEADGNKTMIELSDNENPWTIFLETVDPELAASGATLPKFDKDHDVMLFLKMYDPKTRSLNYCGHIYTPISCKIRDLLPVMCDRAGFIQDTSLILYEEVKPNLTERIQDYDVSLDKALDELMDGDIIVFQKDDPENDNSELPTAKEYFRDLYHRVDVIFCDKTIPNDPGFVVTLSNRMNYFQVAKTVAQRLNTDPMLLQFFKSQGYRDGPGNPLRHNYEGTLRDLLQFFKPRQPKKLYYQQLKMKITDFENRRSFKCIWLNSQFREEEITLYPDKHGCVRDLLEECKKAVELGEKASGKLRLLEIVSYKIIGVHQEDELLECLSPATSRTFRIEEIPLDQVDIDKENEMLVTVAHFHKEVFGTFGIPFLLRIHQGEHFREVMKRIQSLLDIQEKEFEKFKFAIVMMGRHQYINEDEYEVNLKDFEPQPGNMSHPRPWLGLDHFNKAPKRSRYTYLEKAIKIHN
# [2] = target: HAUSP TRAF domain (HAUSP^62–205) (Homo sapiens, UniProt Q93009); format: binding; conditions: ITC
# Sequence of HAUSP TRAF domain (HAUSP^62–205) (Q93009 62-205): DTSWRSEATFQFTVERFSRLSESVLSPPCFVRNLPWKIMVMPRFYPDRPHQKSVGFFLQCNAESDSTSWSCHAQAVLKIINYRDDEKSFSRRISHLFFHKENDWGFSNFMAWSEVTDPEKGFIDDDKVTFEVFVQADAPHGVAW
# HAUSP [3] = target: T1, HAUSP; assay: Co-IP / GST pull-down of HAUSP; format: binding; conditions: transfected 293T cells
molecule,measurement,setting,value
B1,p53 ubiquitination,p53,markedly induced p53 ubiquitination
same,HAUSP DUB activity,HAUSP [1],effectively suppressed HAUSP DUB activity in a binding-dependent manner
B2,"TRAF binding affinity, in words",[2],had no further effect
B3,"TRAF binding affinity, in words",[2],significant reduction of TRAF binding affinity
B4,interaction with HAUSP,HAUSP [3],specifically interacts with; also recorded: sufficient to bind to HAUSP
same,fold higher TRAF affinity (C-terminally extended),[2]; compared with vIRF4^153–216 / vIRF4^202–216,7 fold
